Data set [1] concerns the molecule itself. As to the kind of experiment: negative-stain electron microscopy; filament formation of purified hAire CARD variants refolded from 6 M GdHCl by dialysis (20 mM HEPES pH 7.5, 1 M KCl, 5 mM βME, 16 h, 4 °C) and kept at 4 °C for another 24 h; diluted in TNE buffer to ~50–200 µg/ml, uranyl formate stain.
Data set [2] concerns the molecule itself. Put plainly: negative-stain electron microscopy; filament formation of purified mAire CARD variants after cleavage of the NusA tag with HRV 3C (4 °C, 16 h); diluted in TNE buffer (100 mM Tris pH 8, 50 mM NaCl, 10 mM EDTA) to ~50–200 µg/ml, uranyl formate stain; WT in Fig. 1b also denatured and refolded.

B1: human Aire (hAire) CARD, wild type (domain or fragment, UniProt O43918 1-106, looked up)
chain: MATDAALRRLLRLHRTEIAVAVDSAFPLLHALADHDVVPEDKFQETLHLKEKEGCPQAFHALLSWLLTQDSTAILDFWRVLFKDYNLERYGRLQPILDSFPKDVDL
notes: Autoimmune Regulator (Aire), human, CARD, aa 1-106, subcloned into pET47; Construct His6-3C-hAire CARD; also called WT hAire CARD
Turning to B1, in data set [1], the binding result was “binds”.

B2: mouse Aire (mAire) CARD, wild type (domain or fragment, UniProt Q9Z0E3 1-105, looked up)
chain: MAGGDGMLRRLLRLHRTEIAVAIDSAFPLLHALADHDVVPEDKFQETLRLKEKEGCPQAFHALLSWLLTRDSGAILDFWRILFKDYNLERYSRLHSILDGFPKDV
notes: Autoimmune Regulator (Aire), mouse, CARD, aa 1-105, subcloned into pET50; Forms filaments after the NusA tag is cleaved off at the 3C site; also called WT mAire CARD; source: E. coli BL21(DE3), co-expressed with GroEL/ES + trigger factor, purified (Ni-NTA); tag cleaved with HRV 3C protease; not shown: His6-NusA-His6, N-terminal, cleaved
Regarding B2, the binding result in data set [2] is reported as “binds”.

B3: mouse Aire (mAire) CARD K51A/E52A (domain or fragment, UniProt Q9Z0E3 1-105, looked up)
chain: MAGGDGMLRRLLRLHRTEIAVAIDSAFPLLHALADHDVVPEDKFQETLRLAAKEGCPQAFHALLSWLLTRDSGAILDFWRILFKDYNLERYSRLHSILDGFPKDV
notes: Autoimmune Regulator (Aire), mouse, CARD, aa 1-105, subcloned into pET50; source: E. coli BL21(DE3), co-expressed with GroEL/ES + trigger factor, purified (Ni-NTA; tag cleaved with HRV 3C protease); not shown: His6-NusA-His6, N-terminal, cleaved
For the protein B3, in data set [2], the binding result is “binds”.

B4: mouse Aire (mAire) CARD R70A/D71A (domain or fragment, UniProt Q9Z0E3 1-105, looked up)
chain: MAGGDGMLRRLLRLHRTEIAVAIDSAFPLLHALADHDVVPEDKFQETLRLKEKEGCPQAFHALLSWLLTAASGAILDFWRILFKDYNLERYSRLHSILDGFPKDV
notes: Autoimmune Regulator (Aire), mouse, CARD, aa 1-105, subcloned into pET50; The results print R70A/D71A, the methods R70A/R71A; also called R70A/R71A (so printed in the methods); source: E. coli BL21(DE3), co-expressed with GroEL/ES + trigger factor, induced at 25 °C for 4 h, purified (Ni-NTA; tag cleaved with HRV 3C protease); not shown: His6-NusA-His6, N-terminal, cleaved
As to B4, the binding result in data set [2] is “binds”.

B5: mouse Aire (mAire) CARD K53A/E54A (domain or fragment, UniProt Q9Z0E3 1-105, looked up)
chain: MAGGDGMLRRLLRLHRTEIAVAIDSAFPLLHALADHDVVPEDKFQETLRLKEAAGCPQAFHALLSWLLTRDSGAILDFWRILFKDYNLERYSRLHSILDGFPKDV
notes: as for B3
B5: in data set [2], the binding result was “binds”.
